Results taken from patent publication US20240400703A1 (Genmab, published 2024).

Experiments:
[1] = target: T1, His-tagged human recombinant FcγRIIIa 176-Phe (Sino Biological, cat. no. 10389-H27H) (human, UniProt P08637 17-208); test: SPR, His-tagged FcγR captured on anti-His chip, antibody injected
T1 construct: also called FcγRIIIa[F]
Description: (§1) Biacore Series S Sensor Chips CM5 (Cytiva, cat. no. 29104988) were covalently coated with anti-His antibody using amine-coupling and His capture kits (Cytiva, cat. no. BR100050 and cat. no. 29234602) according to the manufacturer's instructions. […] After three start-up cycles of HBS-EP+ buffer, antibody samples were injected for 12 cycles per sample to generate binding curves using antibody concentration ranges of 0 to 3,000 nM for FcγRIa and 0 to 10,000 nM for the other FcγRs.
(§2) Dissociation from the anti-His-coated surface was performed by regeneration of the surface using 10 mM Glycine-HCl pH 1.5 (Cytiva, cat. no. BR100354).

[2] = target: T2, His-tagged human recombinant FcγRIIIa 176-Val (Sino Biological, cat. no. 10389-H27H1-B) (human, UniProt P08637 17-208); test: as above
T2 construct: also called FcγRIIIa[V]
T2 sequence (P08637 17-208 F176V limits assumed): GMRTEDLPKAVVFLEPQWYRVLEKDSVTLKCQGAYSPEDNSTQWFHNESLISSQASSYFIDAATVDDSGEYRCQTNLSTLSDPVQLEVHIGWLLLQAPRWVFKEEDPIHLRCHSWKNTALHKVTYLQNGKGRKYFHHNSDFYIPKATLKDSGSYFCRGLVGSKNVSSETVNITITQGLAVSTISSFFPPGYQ
Description: as §1, §2

[3] = target: T3, His-tagged human recombinant FcγRIIb (Sino Biological, cat. no. 10259-H27H-B) (human, UniProt P31994 43-217); test: as above
T3 construct: also called FcγRII2b [sic]
T3 sequence (looked up): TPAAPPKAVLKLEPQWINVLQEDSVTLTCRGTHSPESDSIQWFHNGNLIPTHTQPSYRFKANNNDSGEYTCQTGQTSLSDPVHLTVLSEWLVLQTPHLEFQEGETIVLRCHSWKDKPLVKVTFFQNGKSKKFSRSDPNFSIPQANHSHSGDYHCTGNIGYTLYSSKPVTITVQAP
Description: as §1, §2

[4] = target: His-tagged human recombinant FcγRIa (Sino Biological, cat. no. 10256-H08S-B) (human, UniProt P12314 16-288); test: as above
Chain of His-tagged human recombinant FcγRIa (Sino Biological, cat. no. 10256-H08S-B) (P12314 16-288 limits assumed, stated change not applied): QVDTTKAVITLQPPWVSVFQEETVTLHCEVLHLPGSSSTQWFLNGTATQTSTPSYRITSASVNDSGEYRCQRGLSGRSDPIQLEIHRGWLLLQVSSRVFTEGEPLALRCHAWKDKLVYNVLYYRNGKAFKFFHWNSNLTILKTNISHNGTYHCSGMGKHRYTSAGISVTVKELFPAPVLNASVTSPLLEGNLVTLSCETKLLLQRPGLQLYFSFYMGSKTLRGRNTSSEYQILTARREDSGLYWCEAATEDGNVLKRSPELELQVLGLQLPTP
Description: as §1, §2

[5] = target: T4, human OX40 expressed on cells (human, UniProt P43489 29-277); test: flow cytometry, loss of sOX40L (2 µg/mL) binding to activated human CD8+ T cells; competitor sOX40L
T4 construct: also called CD134; TNFRSF4
T4 sequence: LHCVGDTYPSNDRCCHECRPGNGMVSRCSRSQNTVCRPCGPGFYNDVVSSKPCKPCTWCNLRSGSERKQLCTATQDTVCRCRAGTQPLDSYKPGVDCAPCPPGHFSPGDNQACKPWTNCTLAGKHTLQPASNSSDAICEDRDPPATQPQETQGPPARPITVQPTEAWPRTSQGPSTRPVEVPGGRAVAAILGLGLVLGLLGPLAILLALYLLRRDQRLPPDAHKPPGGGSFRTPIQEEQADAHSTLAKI
Description: (§3) Stimulated PBMCs were pelleted, resuspended in FACS buffer 2 (DPBS with 2% heat-inactivated FBS [Sigma-Aldrich, cat. no. F7524] and 2 mM EDTA [Sigma-Aldrich, cat. no. 03690]), and seeded (100,000 cells/well) in round-bottom 96-well plates (VWR International GmbH, cat. no. 734-197). […] Next, cells were washed twice in FACS buffer, and incubated with 30 μL of the antibody panel described in Table 11 diluted in FACS buffer 2 containing 1:1,500 Fixable Viability Stain eFluor 780 at 4° C. for 20 min, protected from light. The cells were subsequently washed twice with 120-150 μL FACS buffer 2 and measured on a BD FACSCelesta flow cytometer using a BD High Throughput sampler and subsequent analysis was done using FlowJo software.

[6] = target: T4, human OX40 expressed on cells; test: flow cytometry, loss of sOX40L (2 µg/mL) binding to activated human CD4+ T cells; competitor sOX40L
Description: as §3

[7] = target: T5, human OX40 with mouse CRD3 (human with mouse CRD3, UniProt P43489 29-277); test: flow cytometry, transfected ExpiCHO-S cells, MFI at 5 µg/mL as % of IgG1-CD134-A4453
T5 construct: on ExpiCHO-S cells; also called OX40-CRD3mm; Shuffle 3
T5 chain: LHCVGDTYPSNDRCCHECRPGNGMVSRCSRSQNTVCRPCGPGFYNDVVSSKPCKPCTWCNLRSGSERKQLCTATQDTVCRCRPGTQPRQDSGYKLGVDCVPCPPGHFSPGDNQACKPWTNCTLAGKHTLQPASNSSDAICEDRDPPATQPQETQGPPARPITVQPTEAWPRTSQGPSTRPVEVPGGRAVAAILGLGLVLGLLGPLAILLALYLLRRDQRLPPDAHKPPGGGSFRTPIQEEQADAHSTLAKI
Description: (§4) The four shuffle constructs, as well as wild-type human and mouse OX40 were transiently expressed on ExpiCHO-S cells using the ExpiFectamine™ CHO Transfection Kit (ThermoFisher, cat. no. A29131), according to the manufacturer's protocol. […] Next, cells were washed twice in FACS buffer 1, were resuspended in a 30 μL solution of viability marker ToPro-3 (Invitrogen, cat. no. T3605, diluted 1:10,000) in FACS buffer 1 supplemented with 2 mM EDTA, and were analyzed on an iQue Screener Plus (Intellicyt Corporation, USA). Data were analyzed using FlowJo software and visualized using GraphPad Prism.

[8] = target: T6, human OX40 with mouse CRD1 (human with mouse CRD1, UniProt P43489 29-277); test: as above
T6 construct: on ExpiCHO-S cells; also called OX40-CRD1mm; Shuffle 1
T6 chain: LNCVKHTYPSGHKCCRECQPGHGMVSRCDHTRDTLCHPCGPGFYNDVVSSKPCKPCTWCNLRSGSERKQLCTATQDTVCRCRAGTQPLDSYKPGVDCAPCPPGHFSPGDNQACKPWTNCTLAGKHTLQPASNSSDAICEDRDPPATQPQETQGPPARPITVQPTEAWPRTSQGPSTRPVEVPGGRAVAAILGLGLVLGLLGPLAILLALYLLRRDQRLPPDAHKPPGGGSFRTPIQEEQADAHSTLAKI
Description: as §4

T1 sequence (P08637 17-208 limits assumed): as the sequence (P08637 17-208 F176V limits assumed) above, with V160F counted along it

binding result [1]: no binding (tested: about 4,000 nM)
binding result [2]: no binding (tested: 10,000 nM)
binding result [3]: no binding (tested: about 5,000 nM)
binding result [4]: binds
IC50 [5]: 0.084 µg/mL
IC50 [6]: 0.086 µg/mL
binding result [7]: binds
binding result [8]: no binding (tested: 5 µg/mL)
B1: IgG1-CD134-003-HC6LC2-P329R-E345R (antibody)
heavy: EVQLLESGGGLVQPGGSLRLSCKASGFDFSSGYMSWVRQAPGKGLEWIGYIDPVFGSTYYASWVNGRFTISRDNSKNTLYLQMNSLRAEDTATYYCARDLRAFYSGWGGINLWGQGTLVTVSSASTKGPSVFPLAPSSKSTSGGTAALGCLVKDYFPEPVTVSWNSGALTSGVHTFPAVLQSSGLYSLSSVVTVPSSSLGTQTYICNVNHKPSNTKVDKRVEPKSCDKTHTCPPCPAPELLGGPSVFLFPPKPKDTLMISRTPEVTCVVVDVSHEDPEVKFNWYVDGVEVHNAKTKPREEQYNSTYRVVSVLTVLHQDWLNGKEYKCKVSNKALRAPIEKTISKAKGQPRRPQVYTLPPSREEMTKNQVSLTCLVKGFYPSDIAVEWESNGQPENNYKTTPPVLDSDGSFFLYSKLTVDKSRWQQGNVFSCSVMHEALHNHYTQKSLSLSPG
light: AAVLTQSPSSLSASVGDRVTITCQSSQIVVNNNFLSWYQQKPGKAPKLLIYDASNLASGVPDRFSGSGSGTDFTFTISSLQPEDIATYYCLGGYDDDAENAFGGGTKVEIKRTVAAPSVFIFPPSDEQLKSGTASVVCLLNNFYPREAKVQWKVDNALQSGNSQESVTEQDSKDSTYSLSSTLTLSKADYEKHKVYACEVTHQGLSSPVTKSFNRGEC
notes: humanized; human IgG1 with P329R and E345R (Eu numbering), kappa; also called IgG1-CD134-003-HC6LC2-RR
